# T1: 6×His-3×Flag-PDS5B, Cy5-labelled (UniProt Q9NTI5 1-1447, Cy5 label)
# T1 construct: PDS5B, cDNA in pFastBac1; primers run from the start codon to the stop codon; also called His-Flag-PDS5B; Cy5-labeled PDS5B; source: SF9 cells (baculovirus), purified (Ni2+ Sepharose); not shown: His6, N-terminal, kept; 3×Flag, N-terminal, kept
# T1 sequence (looked up): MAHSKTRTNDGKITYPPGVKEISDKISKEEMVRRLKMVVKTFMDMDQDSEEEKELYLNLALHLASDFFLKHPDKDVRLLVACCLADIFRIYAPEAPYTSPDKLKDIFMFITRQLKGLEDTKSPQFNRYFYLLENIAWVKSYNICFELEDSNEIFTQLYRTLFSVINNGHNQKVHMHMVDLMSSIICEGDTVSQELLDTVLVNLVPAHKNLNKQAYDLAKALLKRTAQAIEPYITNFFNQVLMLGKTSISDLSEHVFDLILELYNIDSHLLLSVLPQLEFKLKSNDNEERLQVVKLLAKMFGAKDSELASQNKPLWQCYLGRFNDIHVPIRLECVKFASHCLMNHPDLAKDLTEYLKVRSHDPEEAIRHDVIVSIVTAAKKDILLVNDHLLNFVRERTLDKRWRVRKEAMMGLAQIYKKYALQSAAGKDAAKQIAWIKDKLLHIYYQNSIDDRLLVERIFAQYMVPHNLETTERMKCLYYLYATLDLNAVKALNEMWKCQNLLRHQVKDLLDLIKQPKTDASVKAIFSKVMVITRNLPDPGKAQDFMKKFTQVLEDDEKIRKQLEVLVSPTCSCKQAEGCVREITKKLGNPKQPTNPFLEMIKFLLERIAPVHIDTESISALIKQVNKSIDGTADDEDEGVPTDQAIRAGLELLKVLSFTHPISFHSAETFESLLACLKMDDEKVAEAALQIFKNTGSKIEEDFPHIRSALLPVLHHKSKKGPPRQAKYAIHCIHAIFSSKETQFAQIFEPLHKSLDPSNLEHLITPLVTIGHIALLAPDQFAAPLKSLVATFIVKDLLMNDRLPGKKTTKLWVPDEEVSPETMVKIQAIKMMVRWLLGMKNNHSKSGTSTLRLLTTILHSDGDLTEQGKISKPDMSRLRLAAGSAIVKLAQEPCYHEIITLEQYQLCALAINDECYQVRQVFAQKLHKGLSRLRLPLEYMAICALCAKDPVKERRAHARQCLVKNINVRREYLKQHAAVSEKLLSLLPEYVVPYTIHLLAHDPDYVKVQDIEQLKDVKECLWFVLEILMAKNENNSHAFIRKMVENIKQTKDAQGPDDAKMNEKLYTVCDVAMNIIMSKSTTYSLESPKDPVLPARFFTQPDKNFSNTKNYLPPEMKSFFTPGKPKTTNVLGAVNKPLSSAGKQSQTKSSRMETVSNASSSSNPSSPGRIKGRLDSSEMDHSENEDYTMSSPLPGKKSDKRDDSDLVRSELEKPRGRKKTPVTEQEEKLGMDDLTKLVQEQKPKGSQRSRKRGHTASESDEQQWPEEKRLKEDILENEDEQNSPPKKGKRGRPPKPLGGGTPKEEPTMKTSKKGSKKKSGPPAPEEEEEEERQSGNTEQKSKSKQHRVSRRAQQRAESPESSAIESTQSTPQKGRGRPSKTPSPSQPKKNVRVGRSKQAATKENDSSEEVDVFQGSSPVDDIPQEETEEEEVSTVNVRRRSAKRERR
# B1: Wapl (natural protein, UniProt Q7Z5K2 1-1190, looked up)
# chain: MTSRFGKTYSRKGGNGSSKFDEVFSNKRTTLSTKWGETTFMAKLGQKRPNFKPDIQEIPKKPKVEEESTGDPFGFDSDDESLPVSSKNLAQVKCSSYSESSEAAQLEEVTSVLEANSKISHVVVEDTVVSDKCFPLEDTLLGKEKSTNRIVEDDASISSCNKLITSDKVENFHEEHEKNSHHIHKNADDSTKKPNAETTVASEIKETNDTWNSQFGKRPESPSEISPIKGSVRTGLFEWDNDFEDIRSEDCILSLDSDPLLEMKDDDFKNRLENLNEAIEEDIVQSVLRPTNCRTYCRANKTKSSQGASNFDKLMDGTSQALAKANSESSKDGLNQAKKGGVSCGTSFRGTVGRTRDYTVLHPSCLSVCNVTIQDTMERSMDEFTASTPADLGEAGRLRKKADIATSKTTTRFRPSNTKSKKDVKLEFFGFEDHETGGDEGGSGSSNYKIKYFGFDDLSESEDDEDDDCQVERKTSKKRTKTAPSPSLQPPPESNDNSQDSQSGTNNAENLDFTEDLPGVPESVKKPINKQGDKSKENTRKIFSGPKRSPTKAVYNARHWNHPDSEELPGPPVVKPQSVTVRLSSKEPNQKDDGVFKAPAPPSKVIKTVTIPTQPYQDIVTALKCRREDKELYTVVQHVKHFNDVVEFGENQEFTDDIEYLLSGLKSTQPLNTRCLSVISLATKCAMPSFRMHLRAHGMVAMVFKTLDDSQHHQNLSLCTAALMYILSRDRLNMDLDRASLDLMIRLLELEQDASSAKLLNEKDMNKIKEKIRRLCETVHNKHLDLENITTGHLAMETLLSLTSKRAGDWFKEELRLLGGLDHIVDKVKECVDHLSRDEDEEKLVASLWGAERCLRVLESVTVHNPENQSYLIAYKDSQLIVSSAKALQHCEELIQQYNRAEDSICLADSKPLPHQNVTNHVGKAVEDCMRAIIGVLLNLTNDNEWGSTKTGEQDGLIGTALNCVLQVPKYLPQEQRFDIRVLGLGLLINLVEYSARNRHCLVNMETSCSFDSSICSGEGDDSLRIGGQVHAVQALVQLFLERERAAQLAESKTDELIKDAPTTQHDKSGEWQETSGEIQWVSTEKTDGTEEKHKKEEEDEELDLNKALQHAGKHMEDCIVASYTALLLGCLCQESPINVTTVREYLPEGDFSIMTEMLKKFLSFMNLTCAVGTTGQKSISRVIEYLEHC
# notes: Wapl, cohesin-releasing factor; primers run from the start codon to the stop codon
# Assays:
# Conditions in all cases: both partners purified
# [1] = target: T1, 6×His-3×Flag-PDS5B, Cy5-labelled; assay: MST; Cy5-labelled PDS5B at 34 nM, partner in twofold dilutions; 25 °C, 50 mM Tris pH 7.4, 150 mM NaCl, 10% glycerol, 0.05% Tween-20; Monolith NT.115
# [2] = target: T1, 6×His-3×Flag-PDS5B, Cy5-labelled; assay: MST; competitive: 34 nM Cy5-PDS5B and Wapl dilutions combined 10 min at RT, then Sororin and RSMC added (17 nM each, 1:1 molar ratio); 25 °C, 50 mM Tris pH 7.4, 150 mM NaCl, 10% glycerol, 0.05% Tween-20
# [3] = target: T1, 6×His-3×Flag-PDS5B, Cy5-labelled; assay: MST; competitive: 34 nM Cy5-PDS5B and Wapl dilutions combined 10 min at RT, then 17 nM Sororin added; 25 °C, 50 mM Tris pH 7.4, 150 mM NaCl, 10% glycerol, 0.05% Tween-20
binder,measurement,setting,value
B1,Kd,[1],~4.7 µM
same,Kd of Wapl-PDS5B with Sororin and RSMC added (1:1),[2],50.1 µM
same,Kd of Wapl-PDS5B with Sororin added,[3],25.3 µM

# Reference: article PMC12759081, “S-phase PARylation of microprotein RSMC enhances the function of Sororin in sister chromatid cohesion” (The EMBO Journal, 2025)
